Among the data in US20220332804A1 (CSL INNOVATION, published 2022) are Kd values, retold here.

Experiment in all cases: SPR, antibody captured, C2 as analyte;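 further: biacore at 37 °C, anti-C2 mAbs held by immobilised goat anti-human IgG, C2 alanine or serine mutants injected, double-referenced sensorgrams fitted to a 1:1 kinetic or steady-state model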
A general note: SPR reads the build-up and loss of mass on a sensor chip optically.

For one experiment, the target named is T1, human C2 G427A (human, UniProt P06681 21-752).
T1 sequence: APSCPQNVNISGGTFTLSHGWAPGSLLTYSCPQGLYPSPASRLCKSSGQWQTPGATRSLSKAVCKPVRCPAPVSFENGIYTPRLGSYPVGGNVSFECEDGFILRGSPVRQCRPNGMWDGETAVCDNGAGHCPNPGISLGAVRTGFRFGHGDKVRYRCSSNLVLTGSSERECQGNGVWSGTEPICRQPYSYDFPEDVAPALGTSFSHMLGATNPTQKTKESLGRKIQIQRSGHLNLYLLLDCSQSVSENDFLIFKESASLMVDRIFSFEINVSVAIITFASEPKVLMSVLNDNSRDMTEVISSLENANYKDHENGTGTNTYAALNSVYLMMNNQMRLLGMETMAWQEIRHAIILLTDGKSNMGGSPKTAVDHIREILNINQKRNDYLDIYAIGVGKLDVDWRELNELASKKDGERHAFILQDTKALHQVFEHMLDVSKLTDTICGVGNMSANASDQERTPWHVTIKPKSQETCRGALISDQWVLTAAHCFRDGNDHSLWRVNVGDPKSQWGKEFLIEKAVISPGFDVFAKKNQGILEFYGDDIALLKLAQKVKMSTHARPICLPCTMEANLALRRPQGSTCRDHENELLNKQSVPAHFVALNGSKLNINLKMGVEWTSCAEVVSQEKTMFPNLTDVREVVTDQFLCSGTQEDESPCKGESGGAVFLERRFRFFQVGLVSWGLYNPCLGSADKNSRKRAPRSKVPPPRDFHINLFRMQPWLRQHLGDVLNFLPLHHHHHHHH

The target in another experiment is T2, human C2 F437A (human, UniProt P06681 21-752).
T2 sequence: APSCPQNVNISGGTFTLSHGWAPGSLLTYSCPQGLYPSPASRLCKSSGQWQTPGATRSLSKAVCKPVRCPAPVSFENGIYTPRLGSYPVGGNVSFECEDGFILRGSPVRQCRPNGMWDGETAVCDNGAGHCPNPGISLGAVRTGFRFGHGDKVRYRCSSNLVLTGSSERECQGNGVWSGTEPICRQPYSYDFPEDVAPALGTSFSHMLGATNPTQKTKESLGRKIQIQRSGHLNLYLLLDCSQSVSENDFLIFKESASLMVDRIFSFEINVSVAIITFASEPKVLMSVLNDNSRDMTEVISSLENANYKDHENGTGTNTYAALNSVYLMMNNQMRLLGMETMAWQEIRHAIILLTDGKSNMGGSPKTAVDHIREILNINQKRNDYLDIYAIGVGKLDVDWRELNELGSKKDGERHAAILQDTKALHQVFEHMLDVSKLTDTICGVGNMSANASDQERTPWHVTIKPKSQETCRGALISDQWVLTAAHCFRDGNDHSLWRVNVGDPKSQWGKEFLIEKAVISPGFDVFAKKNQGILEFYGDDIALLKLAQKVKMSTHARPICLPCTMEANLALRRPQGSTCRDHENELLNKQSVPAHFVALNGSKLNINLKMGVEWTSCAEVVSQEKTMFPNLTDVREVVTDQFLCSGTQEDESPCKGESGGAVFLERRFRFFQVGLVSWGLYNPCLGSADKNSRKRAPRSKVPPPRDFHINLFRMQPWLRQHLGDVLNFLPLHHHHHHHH

For another experiment, the target named is T3, human C2 L439A (human, UniProt P06681 21-752).
T3 sequence: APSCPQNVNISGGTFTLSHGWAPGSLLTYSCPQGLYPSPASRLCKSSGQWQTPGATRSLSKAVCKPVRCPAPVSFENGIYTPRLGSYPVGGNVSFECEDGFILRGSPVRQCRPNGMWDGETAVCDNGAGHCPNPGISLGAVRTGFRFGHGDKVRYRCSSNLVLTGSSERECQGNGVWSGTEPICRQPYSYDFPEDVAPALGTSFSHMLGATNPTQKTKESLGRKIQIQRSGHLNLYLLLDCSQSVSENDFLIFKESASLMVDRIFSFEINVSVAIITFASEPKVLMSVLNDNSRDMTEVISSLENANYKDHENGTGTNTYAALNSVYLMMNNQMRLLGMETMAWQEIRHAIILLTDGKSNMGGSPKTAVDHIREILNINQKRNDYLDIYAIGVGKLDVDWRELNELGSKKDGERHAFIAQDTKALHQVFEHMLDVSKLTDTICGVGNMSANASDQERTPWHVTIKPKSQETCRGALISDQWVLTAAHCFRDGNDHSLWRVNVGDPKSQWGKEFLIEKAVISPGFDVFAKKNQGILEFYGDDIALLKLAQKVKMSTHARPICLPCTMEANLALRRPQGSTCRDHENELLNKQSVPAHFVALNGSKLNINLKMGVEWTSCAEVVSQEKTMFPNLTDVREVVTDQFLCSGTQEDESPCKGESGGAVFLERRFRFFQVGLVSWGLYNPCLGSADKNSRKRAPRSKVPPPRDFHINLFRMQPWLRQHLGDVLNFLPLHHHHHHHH

The next experiment addresses T4, human C2 N268A (human, UniProt P06681 21-752).
T4 sequence: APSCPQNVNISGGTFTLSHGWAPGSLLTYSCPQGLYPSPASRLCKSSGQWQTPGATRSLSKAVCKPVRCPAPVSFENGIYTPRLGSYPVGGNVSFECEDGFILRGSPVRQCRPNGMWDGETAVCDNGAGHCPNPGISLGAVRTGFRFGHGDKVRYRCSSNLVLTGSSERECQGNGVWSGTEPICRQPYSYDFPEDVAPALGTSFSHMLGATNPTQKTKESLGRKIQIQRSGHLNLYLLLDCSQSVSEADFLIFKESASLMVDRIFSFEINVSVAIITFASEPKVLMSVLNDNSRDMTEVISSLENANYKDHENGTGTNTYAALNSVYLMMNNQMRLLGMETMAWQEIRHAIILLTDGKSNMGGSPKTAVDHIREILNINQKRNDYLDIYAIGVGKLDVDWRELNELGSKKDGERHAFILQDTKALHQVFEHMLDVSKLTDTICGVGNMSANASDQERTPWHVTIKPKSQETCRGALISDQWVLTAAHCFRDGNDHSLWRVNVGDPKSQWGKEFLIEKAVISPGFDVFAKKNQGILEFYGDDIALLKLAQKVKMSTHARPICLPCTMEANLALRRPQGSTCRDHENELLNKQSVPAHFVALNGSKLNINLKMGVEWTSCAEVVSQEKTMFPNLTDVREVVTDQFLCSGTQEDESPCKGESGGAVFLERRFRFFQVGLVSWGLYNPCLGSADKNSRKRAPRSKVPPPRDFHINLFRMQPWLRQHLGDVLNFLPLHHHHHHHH

By Kd is commonly meant the concentration at which binding is half-saturated. Low readings indicate a tighter complex, high ones a looser complex.

B1: RF16-242 (antibody, human IgG4 S228P, lambda, V domains shown)
VH: EVQLLQSGAEVKKPGESLKISCKGSGYSFTSYWIGWVRQMPGKGLEWMGIIYPGDSDTRYSPSFQGQVTISADKSISTAYLQWSSLKASDTAMYYCARRGHYGDYFDYWGQGTLVTVSS
VL: SYELTQPPSVSVSPGQTARITCSGDALPKKYAYWYHQKSGQAPVLVIYEDRRRPSEIPERFSGSSSGTMATLTITGAQVEDEGVYFCYSRDRAGNQRVFGGGTQLTVLG
notes: pH-dependent anti-C2 antibody from a phage display library
Consider B1, for which the Kd with human C2 G427A is 4 nM; with human C2 F437A, 107 nM; in the experiment with human C2 L439A, 170 nM; in the experiment with human C2 N268A it was 14.8 nM.
